In patent publication US20210301277:

Target: T1, human TF (Innovin, DADE/Behring), P13726
T1 chain: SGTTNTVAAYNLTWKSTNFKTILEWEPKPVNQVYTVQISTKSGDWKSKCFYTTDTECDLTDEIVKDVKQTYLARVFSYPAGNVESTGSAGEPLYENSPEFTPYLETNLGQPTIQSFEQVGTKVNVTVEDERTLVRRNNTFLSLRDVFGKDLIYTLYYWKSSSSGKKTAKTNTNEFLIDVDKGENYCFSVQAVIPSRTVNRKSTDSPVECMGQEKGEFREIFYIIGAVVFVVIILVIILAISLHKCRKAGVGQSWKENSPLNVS

| Protein | FX activation in the presence of 1 nM TF (FXa generation rates, mOD/min) | TF-dependent activity (FX activation, cleavage of chromogenic FXa substrate at 405 nm) |
| --- | --- | --- |
| PCgla-egf1FVIIa (protein) chain 1: ANSFLEELRHSSLERECIEEICDFEEAKEIFQNVDDTLAFWSKHVDGDQCLVLPLEHPCASLCCGHGTCIDGIGSFSCDCRSGWEGRFCQRKDDQLICVNENGGCEQYCSDHTGTKRSCRCHEGYSLLADGVSCTPTVEYPCGKIPILEKRNASKPQGR chain 2: IVGGKVCPKGECPWQVLLLVNGAQLCGGTLINTIWVVSAAHCFDKIKNWRNLIAVLGEHDLSEHDGDEQSRRVAQVIIPSTYVPGTTNHDIALLRLHQPVVLTDHVVPLCLPERTFSERTLAFVRFSLVSGWGQLLDRGATALELMVLNVPRLMTQDCLQQSRKVGDSPNITEYMFCAGYSDGSKDSCKGDSGGPHATHYRGTWYLTGIVSWGQGCATVGHFGVYTRVSQYIEWLQKLMRSEPRPGVLLRAPFP | The lack of FX activation, even at 100-fold higher concentration than that of rFVIIa | the activity of PCgla-egf1FVIIa was identical to the vehicle control |
| FIXgla-egf1FVIIa (protein) YNSGKLEEFVQGNLERECMEEKCSFEEAREVFENTERTTEFWKQYVDGDQCESNPCLNGGSCKDDINSYECWCPFGFEGKNCETHKDDQLICVNENGGCEQYCSDHTGTKRSCRCHEGYSLLADGVSCTPTVEYPCGKIPILEKRNASKPQGRIVGGKVCPKGECPWQVLLLVNGAQLCGGTLINTIWVVSAAHCFDKIKNWRNLIAVLGEHDLSEHDGDEQSRRVAQVIIPSTYVPGTTNHDIALLRLHQPVVLTDHVVPLCLPERTFSERTLAFVRFSLVSGWGQLLDRGATALELMVLNVPRLMTQDCLQQSRKVGDSPNITEYMFCAGYSDGSKDSCKGDSGGPHATHYRGTWYLTGIVSWGQGCATVGHFGVYTRVSQYIEWLQKLMRSEPRPGVLLRAPFP | The lack of FX activation, even at 100-fold higher concentration than that of rFVIIa |  |
